System: Escherichia coli TOP10
Assay: shrunken log2 fold change of peptide-encoding DNA abundance (4.5 h post-induction vs induction); higher = less antimicrobial activity (less host growth inhibition)
Details: time post-induction: 4.5 h; library: site-saturation at positions 5, 18, 19, 20
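Also: peptides expressed intracellularly from a pBAD plasmid library in pooled LB shake-flask culture, induced with 0.3% L-arabinose, DNA abundance read by NGS, three biological replicates, DESeq2 with apeglm shrinkage.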

Row | Sequence | shrunken log2 fold change
1 | RRIRKRPPRLPRPRPRPTKFPRP | 0.663
2 | RRIRKRPPRLPRPRPRPTMCPRP | 0.00679
3 | RRIRKRPPRLPRPRPRPTNEPRP | 0.387
4 | RRIRKRPPRLPRPRPRPTPIPRP | 0.639
5 | RRIRKRPPRLPRPRPRPTPPPRP | 1.25
6 | RRIRKRPPRLPRPRPRPTSPPRP | 0.15
7 | RRIRKRPPRLPRPRPRPTSQPRP | 0.149
8 | RRIRKRPPRLPRPRPRPTTIPRP | 0.259
9 | RRIRKRPPRLPRPRPRPTTWPRP | 0.414
10 | RRIRKRPPRLPRPRPRPTWCPRP | 0.263
11 | RRIRKRPPRLPRPRPRPTWRPRP | 1.23
12 | RRIRKRPPRLPRPRPRPTYVPRP | -0.201
13 | RRIRKRPPRLPRPRPRPVADPRP | 0.14
14 | RRIRKRPPRLPRPRPRPVDAPRP | 0.493
15 | RRIRKRPPRLPRPRPRPVDDPRP | 0.508
16 | RRIRKRPPRLPRPRPRPVDSPRP | 0.134
17 | RRIRKRPPRLPRPRPRPVEDPRP | -0.000777
18 | RRIRKRPPRLPRPRPRPVEGPRP | -0.006
19 | RRIRKRPPRLPRPRPRPVERPRP | 0.204
20 | RRIRKRPPRLPRPRPRPVFFPRP | 0.341
21 | RRIRKRPPRLPRPRPRPVFPPRP | 0.0527
22 | RRIRKRPPRLPRPRPRPVIHPRP | -0.0677
23 | RRIRKRPPRLPRPRPRPVKCPRP | 0.105
24 | RRIRKRPPRLPRPRPRPVKVPRP | 0.432
25 | RRIRKRPPRLPRPRPRPVLAPRP | 0.605

Row | Sequence | shrunken log2 fold change
26 | RRIRKRPPRLPRPRPRPVLDPRP | 0.0689
27 | RRIRKRPPRLPRPRPRPVLMPRP | 0.471
28 | RRIRKRPPRLPRPRPRPVMMPRP | 0.155
29 | RRIRKRPPRLPRPRPRPVNLPRP | -0.0889
30 | RRIRKRPPRLPRPRPRPVNPPRP | -0.0659
31 | RRIRKRPPRLPRPRPRPVPGPRP | 0.515
32 | RRIRKRPPRLPRPRPRPVPMPRP | 0.355
33 | RRIRKRPPRLPRPRPRPVQIPRP | 0.13
34 | RRIRKRPPRLPRPRPRPVRNPRP | 0.308
35 | RRIRKRPPRLPRPRPRPVRPPRP | 1.28
36 | RRIRKRPPRLPRPRPRPVRVPRP | 0.591
37 | RRIRKRPPRLPRPRPRPVSLPRP | 0.0505
38 | RRIRKRPPRLPRPRPRPVSQPRP | 0.147
39 | RRIRKRPPRLPRPRPRPVSTPRP | -0.102
40 | RRIRKRPPRLPRPRPRPVTKPRP | 0.063
41 | RRIRKRPPRLPRPRPRPVVIPRP | -0.112
42 | RRIRKRPPRLPRPRPRPVVRPRP | -0.0886
43 | RRIRKRPPRLPRPRPRPVVTPRP | 0.417
44 | RRIRKRPPRLPRPRPRPVWNPRP | -0.106
45 | RRIRKRPPRLPRPRPRPVYCPRP | -0.199
46 | RRIRKRPPRLPRPRPRPVYNPRP | -0.0144
47 | RRIRKRPPRLPRPRPRPVYYPRP | -0.094
48 | RRIRKRPPRLPRPRPRPWAHPRP | 4.43
49 | RRIRKRPPRLPRPRPRPWCGPRP | 0.153
50 | RRIRKRPPRLPRPRPRPWCHPRP | -0.15

Row | Sequence | shrunken log2 fold change
51 | RRIRKRPPRLPRPRPRPWDAPRP | 0.496
52 | RRIRKRPPRLPRPRPRPWDSPRP | 0.0485
53 | RRIRKRPPRLPRPRPRPWEQPRP | 0.0133
54 | RRIRKRPPRLPRPRPRPWFYPRP | -0.0799
55 | RRIRKRPPRLPRPRPRPWGFPRP | 0.0651
56 | RRIRKRPPRLPRPRPRPWGSPRP | -0.034
57 | RRIRKRPPRLPRPRPRPWHGPRP | -0.165
58 | RRIRKRPPRLPRPRPRPWIMPRP | -0.132
59 | RRIRKRPPRLPRPRPRPWKKPRP | 0.0118
60 | RRIRKRPPRLPRPRPRPWLMPRP | 0.0931
61 | RRIRKRPPRLPRPRPRPWLVPRP | 0.177
62 | RRIRKRPPRLPRPRPRPWMLPRP | -0.266
63 | RRIRKRPPRLPRPRPRPWNDPRP | 0.0299
64 | RRIRKRPPRLPRPRPRPWNIPRP | -0.275
65 | RRIRKRPPRLPRPRPRPWNPPRP | 0.159
66 | RRIRKRPPRLPRPRPRPWPFPRP | 0.0352
67 | RRIRKRPPRLPRPRPRPWQQPRP | 0.608
68 | RRIRKRPPRLPRPRPRPWQVPRP | -0.0062
69 | RRIRKRPPRLPRPRPRPWVKPRP | -0.148
70 | RRIRKRPPRLPRPRPRPWVYPRP | 0.107
71 | RRIRKRPPRLPRPRPRPWYTPRP | -0.177
72 | RRIRKRPPRLPRPRPRPWYYPRP | -0.198
73 | RRIRKRPPRLPRPRPRPYAAPRP | -0.102
74 | RRIRKRPPRLPRPRPRPYANPRP | -0.091
75 | RRIRKRPPRLPRPRPRPYAQPRP | -0.00925

Row | Sequence | shrunken log2 fold change
76 | RRIRKRPPRLPRPRPRPYDKPRP | -0.124
77 | RRIRKRPPRLPRPRPRPYFLPRP | -0.278
78 | RRIRKRPPRLPRPRPRPYGQPRP | -0.306
79 | RRIRKRPPRLPRPRPRPYHWPRP | -0.164
80 | RRIRKRPPRLPRPRPRPYLFPRP | -0.0275
81 | RRIRKRPPRLPRPRPRPYMHPRP | -0.0355
82 | RRIRKRPPRLPRPRPRPYSCPRP | -0.0242
83 | RRIRKRPPRLPRPRPRPYTVPRP | -0.0362
84 | RRIRKRPPRLPRPRPRPYTYPRP | -0.119
85 | RRIRLRPPRLPRPRPRPACPPRP | -0.00982
86 | RRIRLRPPRLPRPRPRPAEAPRP | 0.0653
87 | RRIRLRPPRLPRPRPRPAEIPRP | -0.219
88 | RRIRLRPPRLPRPRPRPAFGPRP | 0.359
89 | RRIRLRPPRLPRPRPRPAFIPRP | -0.116
90 | RRIRLRPPRLPRPRPRPAFNPRP | -0.189
91 | RRIRLRPPRLPRPRPRPAFSPRP | 0.106
92 | RRIRLRPPRLPRPRPRPAGHPRP | -0.0387
93 | RRIRLRPPRLPRPRPRPAHLPRP | 0.343
94 | RRIRLRPPRLPRPRPRPALDPRP | 0.396
95 | RRIRLRPPRLPRPRPRPALQPRP | 0.215
96 | RRIRLRPPRLPRPRPRPALRPRP | 0.178
97 | RRIRLRPPRLPRPRPRPAPHPRP | 0.514
98 | RRIRLRPPRLPRPRPRPAPMPRP | 0.118
99 | RRIRLRPPRLPRPRPRPASDPRP | -0.19
100 | RRIRLRPPRLPRPRPRPASQPRP | -0.18

Row | Sequence | shrunken log2 fold change
101 | RRIRLRPPRLPRPRPRPATSPRP | -0.149
102 | RRIRLRPPRLPRPRPRPAYRPRP | -0.0396
103 | RRIRLRPPRLPRPRPRPCAAPRP | 0.236
104 | RRIRLRPPRLPRPRPRPCADPRP | 0.151
105 | RRIRLRPPRLPRPRPRPCAGPRP | 0.0736
106 | RRIRLRPPRLPRPRPRPCCGPRP | -0.00366
107 | RRIRLRPPRLPRPRPRPCFDPRP | -0.293
108 | RRIRLRPPRLPRPRPRPCFFPRP | -0.13
109 | RRIRLRPPRLPRPRPRPCFQPRP | -0.512
110 | RRIRLRPPRLPRPRPRPCGIPRP | 0.142
111 | RRIRLRPPRLPRPRPRPCGNPRP | 0.0862
112 | RRIRLRPPRLPRPRPRPCGRPRP | 0.147
113 | RRIRLRPPRLPRPRPRPCHDPRP | -0.116
114 | RRIRLRPPRLPRPRPRPCIQPRP | -0.675
115 | RRIRLRPPRLPRPRPRPCITPRP | -0.275
116 | RRIRLRPPRLPRPRPRPCKQPRP | 0.0377
117 | RRIRLRPPRLPRPRPRPCLIPRP | -0.0321
118 | RRIRLRPPRLPRPRPRPCMHPRP | -0.0286
119 | RRIRLRPPRLPRPRPRPCMLPRP | -0.398
120 | RRIRLRPPRLPRPRPRPCPIPRP | -0.335
121 | RRIRLRPPRLPRPRPRPCPNPRP | 0.0236
122 | RRIRLRPPRLPRPRPRPCPRPRP | 0.0559
123 | RRIRLRPPRLPRPRPRPCPWPRP | -0.129
124 | RRIRLRPPRLPRPRPRPCQSPRP | -0.0018
125 | RRIRLRPPRLPRPRPRPCQVPRP | -0.128

Row | Sequence | shrunken log2 fold change
126 | RRIRLRPPRLPRPRPRPCSCPRP | 0.00383
127 | RRIRLRPPRLPRPRPRPCTEPRP | -0.0105
128 | RRIRLRPPRLPRPRPRPCVGPRP | -0.0253
129 | RRIRLRPPRLPRPRPRPCVHPRP | -0.377
130 | RRIRLRPPRLPRPRPRPCWKPRP | 0.00126
131 | RRIRLRPPRLPRPRPRPCWRPRP | 0.0285
132 | RRIRLRPPRLPRPRPRPCYDPRP | 0.00693
133 | RRIRLRPPRLPRPRPRPDAPPRP | 0.313
134 | RRIRLRPPRLPRPRPRPDCGPRP | 0.0932
135 | RRIRLRPPRLPRPRPRPDCWPRP | 0.362
136 | RRIRLRPPRLPRPRPRPDDMPRP | 0.0411
137 | RRIRLRPPRLPRPRPRPDEPPRP | -0.0538
138 | RRIRLRPPRLPRPRPRPDFDPRP | -0.047
139 | RRIRLRPPRLPRPRPRPDFHPRP | -0.206
140 | RRIRLRPPRLPRPRPRPDGIPRP | -0.0391
141 | RRIRLRPPRLPRPRPRPDGSPRP | 0.0129
142 | RRIRLRPPRLPRPRPRPDGTPRP | 0.245
143 | RRIRLRPPRLPRPRPRPDITPRP | -0.00678
144 | RRIRLRPPRLPRPRPRPDKYPRP | -0.769
145 | RRIRLRPPRLPRPRPRPDLMPRP | -0.145
146 | RRIRLRPPRLPRPRPRPDNCPRP | -0.0891
147 | RRIRLRPPRLPRPRPRPDNDPRP | -0.228
148 | RRIRLRPPRLPRPRPRPDNTPRP | -0.386
149 | RRIRLRPPRLPRPRPRPDQNPRP | -0.0565
150 | RRIRLRPPRLPRPRPRPDQSPRP | 0.0621
